Experimental data: patent US20250361268A1, “NOVEL ANTI-INFLAMMATORY PEPTIDE AND USE THEREOF” (NOVACELL TECHNOLOGY INC., priority 2022, published 2025)

T1: formyl peptide receptor 2 (FPR2) (UniProt P25090 1-351, limits assumed)
T1 sequence (looked up): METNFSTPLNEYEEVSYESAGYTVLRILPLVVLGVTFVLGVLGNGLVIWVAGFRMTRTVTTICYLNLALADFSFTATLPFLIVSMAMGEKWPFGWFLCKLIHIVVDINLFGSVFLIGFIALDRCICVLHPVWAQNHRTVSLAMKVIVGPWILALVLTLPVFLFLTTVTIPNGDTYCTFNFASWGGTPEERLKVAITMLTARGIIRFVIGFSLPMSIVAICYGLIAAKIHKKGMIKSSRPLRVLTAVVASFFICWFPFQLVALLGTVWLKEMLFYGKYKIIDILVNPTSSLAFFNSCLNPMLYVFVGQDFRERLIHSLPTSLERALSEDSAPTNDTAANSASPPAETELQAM

T2: FPR1 (UniProt P21462 1-350, limits assumed)
T2 sequence (looked up): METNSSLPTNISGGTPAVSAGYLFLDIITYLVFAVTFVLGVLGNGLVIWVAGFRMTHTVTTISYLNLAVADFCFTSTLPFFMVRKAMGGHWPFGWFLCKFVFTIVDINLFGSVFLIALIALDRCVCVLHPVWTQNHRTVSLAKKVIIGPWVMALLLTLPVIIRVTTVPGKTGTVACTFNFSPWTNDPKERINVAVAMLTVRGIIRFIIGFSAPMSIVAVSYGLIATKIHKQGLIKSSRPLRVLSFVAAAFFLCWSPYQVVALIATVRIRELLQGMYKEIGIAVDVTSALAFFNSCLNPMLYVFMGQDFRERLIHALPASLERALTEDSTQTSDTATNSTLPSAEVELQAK

B1: peptide of SEQ ID NO 101 (peptide)
peptide: RWRYWVM
HELM: PEPTIDE1{R.W.R.Y.W.V.[dM].[am]}$$$$V2.0; N-terminus assumed
SMILES: CSCC[C@@H](NC(=O)[C@@H](NC(=O)[C@H](Cc1c[nH]c2ccccc12)NC(=O)[C@H](Cc1ccc(O)cc1)NC(=O)[C@H](CCCNC(=N)N)NC(=O)[C@H](Cc1c[nH]c2ccccc12)NC(=O)[C@@H](N)CCCNC(=N)N)C(C)C)C(N)=O
B2: peptide of SEQ ID NO 40 (peptide)
peptide: RMRYKYM
HELM: PEPTIDE1{[CCCCCCCC(=O)[*:2]].R.M.R.Y.K.Y.[dM].[am]}$$$$V2.0
SMILES: CCCCCCCC(=O)N[C@@H](CCCNC(=N)N)C(=O)N[C@@H](CCSC)C(=O)N[C@@H](CCCNC(=N)N)C(=O)N[C@@H](Cc1ccc(O)cc1)C(=O)N[C@@H](CCCCN)C(=O)N[C@@H](Cc1ccc(O)cc1)C(=O)N[C@H](CCSC)C(N)=O
B3: peptide of SEQ ID NO 76 (peptide)
peptide: WRYKPM
HELM: PEPTIDE1{[ac].W.R.Y.K.P.[dM].[am]}$$$$V2.0
SMILES: CSCC[C@@H](NC(=O)[C@@H]1CCCN1C(=O)[C@H](CCCCN)NC(=O)[C@H](Cc1ccc(O)cc1)NC(=O)[C@H](CCCNC(=N)N)NC(=O)[C@H](Cc1c[nH]c2ccccc12)NC(C)=O)C(N)=O
B4: peptide of SEQ ID NO 75 (peptide)
peptide: RWRYKPM
HELM: PEPTIDE1{[CCCC(=O)[*:2]].R.W.R.Y.K.P.[dM].[am]}$$$$V2.0
SMILES: CCCC(=O)N[C@@H](CCCNC(=N)N)C(=O)N[C@@H](Cc1c[nH]c2ccccc12)C(=O)N[C@@H](CCCNC(=N)N)C(=O)N[C@@H](Cc1ccc(O)cc1)C(=O)N[C@@H](CCCCN)C(=O)N1CCC[C@H]1C(=O)N[C@H](CCSC)C(N)=O
B5: peptide of SEQ ID NO 32 (peptide)
peptide: RWRYKYM
HELM: PEPTIDE1{R.W.R.Y.K.Y.[dM].[am]}$$$$V2.0; N-terminus assumed
SMILES: CSCC[C@@H](NC(=O)[C@H](Cc1ccc(O)cc1)NC(=O)[C@H](CCCCN)NC(=O)[C@H](Cc1ccc(O)cc1)NC(=O)[C@H](CCCNC(=N)N)NC(=O)[C@H](Cc1c[nH]c2ccccc12)NC(=O)[C@@H](N)CCCNC(=N)N)C(N)=O
B6: peptide of SEQ ID NO 39 (peptide)
peptide: RMRYKYM
HELM: PEPTIDE1{[ac].R.M.R.Y.K.Y.[dM].[am]}$$$$V2.0
SMILES: CSCC[C@H](NC(=O)[C@H](CCCNC(=N)N)NC(C)=O)C(=O)N[C@@H](CCCNC(=N)N)C(=O)N[C@@H](Cc1ccc(O)cc1)C(=O)N[C@@H](CCCCN)C(=O)N[C@@H](Cc1ccc(O)cc1)C(=O)N[C@H](CCSC)C(N)=O
B7: peptide of SEQ ID NO 93 (peptide)
peptide: HMRYWYM
HELM: PEPTIDE1{[CCCC(=O)[*:2]].H.M.R.Y.W.Y.[dM].[am]}$$$$V2.0
SMILES: CCCC(=O)N[C@@H](Cc1c[nH]cn1)C(=O)N[C@@H](CCSC)C(=O)N[C@@H](CCCNC(=N)N)C(=O)N[C@@H](Cc1ccc(O)cc1)C(=O)N[C@@H](Cc1c[nH]c2ccccc12)C(=O)N[C@@H](Cc1ccc(O)cc1)C(=O)N[C@H](CCSC)C(N)=O
B8: peptide of SEQ ID NO 98 (peptide)
peptide: RMRYYVM
HELM: PEPTIDE1{[ac].R.M.R.Y.Y.V.[dM].[am]}$$$$V2.0
SMILES: CSCC[C@H](NC(=O)[C@H](CCCNC(=N)N)NC(C)=O)C(=O)N[C@@H](CCCNC(=N)N)C(=O)N[C@@H](Cc1ccc(O)cc1)C(=O)N[C@@H](Cc1ccc(O)cc1)C(=O)N[C@H](C(=O)N[C@H](CCSC)C(N)=O)C(C)C
B9: peptide of SEQ ID NO 96 (peptide)
peptide: KWKYYVM
HELM: PEPTIDE1{K.W.K.Y.Y.V.[dM].[am]}$$$$V2.0; N-terminus assumed
SMILES: CSCC[C@@H](NC(=O)[C@@H](NC(=O)[C@H](Cc1ccc(O)cc1)NC(=O)[C@H](Cc1ccc(O)cc1)NC(=O)[C@H](CCCCN)NC(=O)[C@H](Cc1c[nH]c2ccccc12)NC(=O)[C@@H](N)CCCCN)C(C)C)C(N)=O
B10: peptide of SEQ ID NO 100 (peptide)
peptide: MRYYVM
HELM: PEPTIDE1{M.R.Y.Y.V.[dM].[am]}$$$$V2.0; N-terminus assumed
SMILES: CSCC[C@H](N)C(=O)N[C@@H](CCCNC(=N)N)C(=O)N[C@@H](Cc1ccc(O)cc1)C(=O)N[C@@H](Cc1ccc(O)cc1)C(=O)N[C@H](C(=O)N[C@H](CCSC)C(N)=O)C(C)C
B11: peptide of SEQ ID NO 20 (peptide)
peptide: MKYKVM
HELM: PEPTIDE1{[CCCCCCCC(=O)[*:2]].M.K.Y.K.V.[dM].[am]}$$$$V2.0
SMILES: CCCCCCCC(=O)N[C@@H](CCSC)C(=O)N[C@@H](CCCCN)C(=O)N[C@@H](Cc1ccc(O)cc1)C(=O)N[C@@H](CCCCN)C(=O)N[C@H](C(=O)N[C@H](CCSC)C(N)=O)C(C)C
B12: peptide of SEQ ID NO 94 (peptide)
peptide: RWRYYVM
HELM: PEPTIDE1{R.W.R.Y.Y.V.[dM].[am]}$$$$V2.0; N-terminus assumed
SMILES: CSCC[C@@H](NC(=O)[C@@H](NC(=O)[C@H](Cc1ccc(O)cc1)NC(=O)[C@H](Cc1ccc(O)cc1)NC(=O)[C@H](CCCNC(=N)N)NC(=O)[C@H](Cc1c[nH]c2ccccc12)NC(=O)[C@@H](N)CCCNC(=N)N)C(C)C)C(N)=O
B13: peptide of SEQ ID NO 34 (peptide)
peptide: RWRYKYM
HELM: PEPTIDE1{[CCCCCCCC(=O)[*:2]].R.W.R.Y.K.Y.[dM].[am]}$$$$V2.0
SMILES: CCCCCCCC(=O)N[C@@H](CCCNC(=N)N)C(=O)N[C@@H](Cc1c[nH]c2ccccc12)C(=O)N[C@@H](CCCNC(=N)N)C(=O)N[C@@H](Cc1ccc(O)cc1)C(=O)N[C@@H](CCCCN)C(=O)N[C@@H](Cc1ccc(O)cc1)C(=O)N[C@H](CCSC)C(N)=O
B14: peptide of SEQ ID NO 97 (peptide)
peptide: RMRYYVM
HELM: PEPTIDE1{R.M.R.Y.Y.V.[dM].[am]}$$$$V2.0; N-terminus assumed
SMILES: CSCC[C@H](NC(=O)[C@@H](N)CCCNC(=N)N)C(=O)N[C@@H](CCCNC(=N)N)C(=O)N[C@@H](Cc1ccc(O)cc1)C(=O)N[C@@H](Cc1ccc(O)cc1)C(=O)N[C@H](C(=O)N[C@H](CCSC)C(N)=O)C(C)C
B15: peptide of SEQ ID NO 42 (peptide)
peptide: MRYKYM
HELM: PEPTIDE1{[ac].M.R.Y.K.Y.[dM].[am]}$$$$V2.0
SMILES: CSCC[C@H](NC(C)=O)C(=O)N[C@@H](CCCNC(=N)N)C(=O)N[C@@H](Cc1ccc(O)cc1)C(=O)N[C@@H](CCCCN)C(=O)N[C@@H](Cc1ccc(O)cc1)C(=O)N[C@H](CCSC)C(N)=O

Key:
[1] = biological target: T1, formyl peptide receptor 2 (FPR2); experiment: cell-based or functional assay
[2] = biological target: T2, FPR1; experiment: cell-based or functional assay

Binder	EC50 for [Ca2+] [1] [nM]	EC50 for [Ca2+] [2] [nM]
B1	< 10	–
B2	–	> 10000
B3	< 10	–
B4	< 10	–
B5	–	> 10000
B6	–	> 10000
B7	< 10	–
B8	< 10	–
B9	< 10	–
B10	< 10	–
B11	–	> 10000
B12	< 10	–
B13	–	> 10000
B14	< 10	–
B15	–	> 10000
